Paper PMC5797217, “UFD-2 is an adaptor-assisted E3 ligase targeting unfolded proteins” (Nature Communications, 2018)

T1: UNC-45 full-length, His6-tagged (C. elegans, UniProt G5EG62 1-961)
T1 construct: UNC-45, C. elegans, full-length (961 residues by the printed limits of the deletion constructs); also called UNC-45-His6; wild-type, full-length protein; source: E. coli BL21-DE3-RIL, purified (NiNTA, SEC); not shown: His6, C-terminal, kept
T1 sequence (looked up): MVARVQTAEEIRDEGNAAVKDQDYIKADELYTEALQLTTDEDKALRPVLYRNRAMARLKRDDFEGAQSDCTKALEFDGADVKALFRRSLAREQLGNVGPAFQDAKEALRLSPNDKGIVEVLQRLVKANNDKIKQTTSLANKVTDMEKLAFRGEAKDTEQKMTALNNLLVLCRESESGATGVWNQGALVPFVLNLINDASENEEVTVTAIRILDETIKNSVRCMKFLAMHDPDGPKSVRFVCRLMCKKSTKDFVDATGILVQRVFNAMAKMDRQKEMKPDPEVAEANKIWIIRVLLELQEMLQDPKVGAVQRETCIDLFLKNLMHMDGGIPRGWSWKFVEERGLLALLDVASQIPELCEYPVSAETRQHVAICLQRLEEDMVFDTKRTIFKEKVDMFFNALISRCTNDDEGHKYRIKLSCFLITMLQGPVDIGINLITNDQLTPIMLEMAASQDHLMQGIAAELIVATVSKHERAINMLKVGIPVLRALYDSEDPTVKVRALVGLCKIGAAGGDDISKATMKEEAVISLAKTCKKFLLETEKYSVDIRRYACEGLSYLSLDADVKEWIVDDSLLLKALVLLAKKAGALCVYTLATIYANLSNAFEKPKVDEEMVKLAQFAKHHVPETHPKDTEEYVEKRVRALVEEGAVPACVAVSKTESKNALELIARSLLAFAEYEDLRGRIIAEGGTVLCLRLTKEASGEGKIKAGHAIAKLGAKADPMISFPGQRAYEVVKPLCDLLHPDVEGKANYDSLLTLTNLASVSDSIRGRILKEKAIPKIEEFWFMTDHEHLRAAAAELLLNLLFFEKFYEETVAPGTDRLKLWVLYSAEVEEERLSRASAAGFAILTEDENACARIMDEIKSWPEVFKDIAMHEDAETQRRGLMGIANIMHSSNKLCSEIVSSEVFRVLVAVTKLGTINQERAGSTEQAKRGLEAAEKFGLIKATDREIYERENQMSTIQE


Key:
[1] = biological target: T1, UNC-45 full-length, His6-tagged; assay: pull-down; three proteins: His6-tagged UNC-45 pre-incubated with myosin (MHC-B motor domain) 60 min 27 °C, then with Strep-UFD-2 60 min 30 °C; Strep-Tactin beads; 5 µM protein; 20 mM Tris pH 7.5, 50 mM NaCl; Coomassie; details: both partners purified
[2] = biological target: the molecule itself; assay: crystal structure; crystal form UNC-45_(717), space group P6_(1)22, 3.8 Å; molecules form filaments in the crystal lattice

Binder | binding result [1] | binding result [2]
C. elegans MHC-B motor domain (1-790), His6-tagged (domain or fragment, UniProt P02566 1-790, looked up, Myosin heavy chain B (MHC-B, UNC-54), C. elegans muscle myosin, motor domain residues 1-790, cloned from cDNA into pACEBac1; also called myosin; MHC-B head domain; source: High Five insect cells, purified (NiNTA, Streptactin wash fractions, SEC) or co-purified with UNC-45; not shown: His6, C-terminal, kept) MEHEKDPGWQYLRRTREQVLEDQSKPYDSKKNVWIPDPEEGYLAGEITATKGDQVTIVTARGNEVTLKKELVQEMNPPKFEKTEDMSNLSFLNDASVLHNLRSRYAAMLIYTYSGLFCVVINPYKRLPIYTDSCARMFMGKRKTEMPPHLFAVSDEAYRNMLQDHENQSMLITGESGAGKTENTKKVICYFAAVGASQQEGGAEVDPNKKKVTLEDQIVQTNPVLEAFGNAKTVRNNNSSRFGKFIRIHFNKHGRLASCDIEHYLLEKSRVIRQAPGERCYHIFYQIYSDFRPELKKELLLDLPIKDYWFVAQAELIIDGIDDVEEFQLTDEAFDILNFSAVEKQDCYRLMSAHMHMGNMKFKQRPREEQAEPDGTDEAEKASNMYGIGCEEFLKALTKPRVKVGTEWVSKGQNCEQVNWAVGAMAKGLYSRVFNWLVKKCNLTLDQKGIDRDYFIGVLDIAGFEIFDFNSFEQLWINFVNEKLQQFFNHHMFVLEQEEYAREGIQWVFIDFGLDLQACIELIEKPLGIISMLDEECIVPKATDLTLASKLVDQHLGKHPNFEKPKPPKGKQGEAHFAMRHYAGTVRYNCLNWLEKNKDPLNDTVVSAMKQSKGNDLLVEIWQDYTTQEEAAAKAKEGGGGGKKKGKSGSFMTVSMLYRESLNNLMTMLNKTHPHFIRCIIPNEKKQSGMIDAALVLNQLTCNGVLEGIRICRKGFPNRTLHPDFVQRYAILAAKEAKSDDDKKKCAEAIMSKLVNDGSLSEEMFRIGLTKVFFKAGVLAHLEDIRDEKL | binds | 
UNC-45 wild type, crystallised (crystal form UNC-45_(717)) (natural protein, C. elegans, UniProt G5EG62 1-961, looked up, UNC-45, C. elegans, wild-type full-length protein used for crystallisation) MVARVQTAEEIRDEGNAAVKDQDYIKADELYTEALQLTTDEDKALRPVLYRNRAMARLKRDDFEGAQSDCTKALEFDGADVKALFRRSLAREQLGNVGPAFQDAKEALRLSPNDKGIVEVLQRLVKANNDKIKQTTSLANKVTDMEKLAFRGEAKDTEQKMTALNNLLVLCRESESGATGVWNQGALVPFVLNLINDASENEEVTVTAIRILDETIKNSVRCMKFLAMHDPDGPKSVRFVCRLMCKKSTKDFVDATGILVQRVFNAMAKMDRQKEMKPDPEVAEANKIWIIRVLLELQEMLQDPKVGAVQRETCIDLFLKNLMHMDGGIPRGWSWKFVEERGLLALLDVASQIPELCEYPVSAETRQHVAICLQRLEEDMVFDTKRTIFKEKVDMFFNALISRCTNDDEGHKYRIKLSCFLITMLQGPVDIGINLITNDQLTPIMLEMAASQDHLMQGIAAELIVATVSKHERAINMLKVGIPVLRALYDSEDPTVKVRALVGLCKIGAAGGDDISKATMKEEAVISLAKTCKKFLLETEKYSVDIRRYACEGLSYLSLDADVKEWIVDDSLLLKALVLLAKKAGALCVYTLATIYANLSNAFEKPKVDEEMVKLAQFAKHHVPETHPKDTEEYVEKRVRALVEEGAVPACVAVSKTESKNALELIARSLLAFAEYEDLRGRIIAEGGTVLCLRLTKEASGEGKIKAGHAIAKLGAKADPMISFPGQRAYEVVKPLCDLLHPDVEGKANYDSLLTLTNLASVSDSIRGRILKEKAIPKIEEFWFMTDHEHLRAAAAELLLNLLFFEKFYEETVAPGTDRLKLWVLYSAEVEEERLSRASAAGFAILTEDENACARIMDEIKSWPEVFKDIAMHEDAETQRRGLMGIANIMHSSNKLCSEIVSSEVFRVLVAVTKLGTINQERAGSTEQAKRGLEAAEKFGLIKATDREIYERENQMSTIQE |  | binds
